These results are taken from PMC7022206.

For test [1], the target named is Cysteine-tagged FG domain of human Nup153 (human). The test is described as follows: SPR.
The target of test [2] is NLS-conjugated polymersome nanocarriers (bipartite nucleoplasmin NLS peptide on PMOXA-PDMS-PMOXA polymersomes). The test is described as follows: dual-color fluorescence lifetime cross-correlation spectroscopy.

With “Kapα•Kapβ1 (from UniProt P52292;Q14974) (complex)”, the dissociation constant Kd was 24.8 nM in test [1] and below 0.4 nM in test [2].
